Data taken from patent publication US20220119523A1, “TREATMENT OF CUTANEOUS T CELL LYMPHOMA WITH TARGETING OF CD47 PATHWAY” (The Board of Trustees of the Leland Stanford Junior …, priority 2019, published 2022).

Experiments:
[1] = tested on: newly diagnosed AML patients 65 years or older; settings: 75 mg/m^2 per day SC for 7 consecutive days per 28-day cycle, at least 6 cycles; conventional care regimens 6.5 months; cited from earlier work
CTCL tumor cells = assay: In vitro phagocytosis assay, co-culture of macrophages with CTCL tumor cells; format: cell-based, human; settings: for phagocytosis (percentage of GFP+ macrophages): 2 hours co-culture
Experimental: (§1) Cancer Cells. HH (CTCL lymphoblast ATCC); HuT78 (Sezary Syndrome CTCL, ATCC); HuT102 (Mycosis Fungoides CTCL, ATCC); and MJ (Mycosis Fungoides CTCL, ATCC) were cultured in RPMI (ThermoFisher S.) (DLD1), EMEM (ThermoFisher S.) (CACO-2, LS174T), McCoy's 5A (ThermoFisher S.) (HT29, HCT116), or Leibovitz's L-15 (ThermoFisher S.) (SW48, SW 620) supplemented with 10% fetal bovine serum (Omega Scientific), 100 U/mL penicillin and 100 μg/mL streptomycin (ThermoFisher S.)
(§2) In Vitro Phagocytosis Assay. Peripheral blood mononuclear cells were enriched by density gradient centrifugation and monocytes were purified with anti-CD14 microbeads (Miltenyi) and differentiated to macrophages by culture for 7-10 days in IMDM+GlutaMax (Invitrogen) supplemented with 10% AB-Human Serum (Invitrogen) and 100 U/mL penicillin and 100 μg/mL streptomycin (Invitrogen). Phagocytosis assays were performed by co-culture of 50,000 macrophages with 100,000 CTCL tumor cells for 2 hours, then analyzed using an LSRFortessa cell analyzer with high throughput sampler (BD Biosciences). Antibodies used for treatment included: IgG4 isotype control, anti-CD47—clone magrolimab (Stanford). Macrophages were identified by flow cytometry using anti-CD206 antibody. Dead cells were excluded from the analysis by staining with DAPI (Sigma). Phagocytosis was evaluated as the percentage of GFP+ macrophages and was normalized to the maximal response by each independent donor against each cell line.

HH = assay: In vitro phagocytosis assay, HH cell line; format: cell-based, human; settings: HH cells; macrophage from NOD scid gamma mice (NSG); vs IgG4 control antibody; FIG. 2A-2B
Experimental: as §1
as §2, with “Dead cells were excluded from the analysis by staining with DAPI (Sigma).” left out

HUT78 = assay: In vitro phagocytosis assay, HUT78 cell line; format: cell-based, human; settings: HUT78 cells; macrophage from NOD scid gamma mice (NSG); vs IgG4 control antibody; FIG. 2A-2B
HH tumor cells = assay: Xenograft tumor model, HH cells in NSG mice; format: in vivo; settings: 250 μg intraperitoneal every other day, vs PBS
Experimental: (§3) Mice. 6-8 week old NSG (NOD.Cg-Prkdcscid Il2rgtm1Wjl/SzJ) mice were used.
(§4) Xenograft Tumor Models. […] For all treatments, antibodies where administered by intraperitoneal injection (100 μl) as follows: PBS and […] (250 μg) every other day. Tumor volume and survival was monitored.

HuT78 tumor cells = assay: Xenograft tumor model, HuT78 cells in NSG mice; format: in vivo; settings: 250 μg intraperitoneal every other day, vs PBS
Experimental: as §3, §4

**Q.** Which “Median OS” value [1] does the source give for `Nc1ncn([C@@H]2O[C@H](CO)[C@@H](O)[C@H]2O)c(=O)n1` [azacitidine] here?
**A.** Its value is 10.4 months.

B1: anti-CCR4: antibody that corresponds to mogamulizumab, a defucosylated anti-CCR4 humanized IgG1 antibody binding the N-terminal domain of CCR4 (antibody, chains of the INN, looked up, V domains shown)
VH: EVQLVESGGDLVQPGRSLRLSCAASGFIFSNYGMSWVRQAPGKGLEWVATISSASTYSYYPDSVKGRFTISRDNAKNSLYLQMNSLRVEDTALYYCGRHSDGNFAFGYWGQGTLVTVSS
VL: DVLMTQSPLSLPVTPGEPASISCRSSRNIVHINGDTYLEWYLQKPGQSPQLLIYKVSNRFSGVPDRFSGSGSGTDFTLKISRVEAEDVGVYYCFQGSLLPWTFGQGTKVEIK
**Q.** Which “phagocytosis, combination of anti-CD47 and anti-CCR4” value (CTCL tumor cells; FIG. 3A-3B, combined antibodies) does the source give for B1 here?
**A.** Its value is “synergizes with anti-CD47 antibody”.

**Q.** And the “phagocytosis, antibody by itself” value (CTCL tumor cells; FIG. 3A-3B, single agent)?
**A.** The value was “little or no effect on phagocytosis”.

B2: Magrolimab: monoclonal antibody designed to block CD47; specifically binds human CD47; humanized 5F9 with IgG4 (antibody, chains of the INN, looked up, V domains shown)
VH: QVQLVQSGAEVKKPGASVKVSCKASGYTFTNYNMHWVRQAPGQRLEWMGTIYPGNDDTSYNQKFKDRVTITADTSASTAYMELSSLRSEDTAVYYCARGGYRAMDYWGQGTLVTVSS
VL: DIVMTQSPLSLPVTPGEPASISCRSSQSIVYSNGNTYLGWYLQKPGQSPQLLIYKVSNRFSGVPDRFSGSGSGTDFTLKISRVEAEDVGVYYCFQGSHVPYTFGQGTKLEIK
**Q.** Which “phagocytosis (percent of phagocytosis / percent of maximum phagocytosis)” value (HH) does the source give for B2 here?
**A.** Its value is “increased phagocytosis”.

**Q.** And the “phagocytosis (percent of phagocytosis / percent of maximum phagocytosis)” value (HUT78)?
**A.** The value was “increased phagocytosis”.

**Q.** And the “phagocytosis (percentage of GFP+ macrophages)” value (CTCL tumor cells; human macrophages (FIG. 2B))?
**A.** The value was “significant increase in phagocytosis”.

**Q.** And the “phagocytosis (percentage of GFP+ macrophages)” value (CTCL tumor cells; mouse macrophages (FIG. 2A))?
**A.** The value was “significant increase in phagocytosis”.

**Q.** And the tumor volume (HH tumor cells; FIG. 4A)?
**A.** Its tumor volume is “reduced”.

**Q.** What about the survival (HH tumor cells; FIG. 4B) of the same molecule?
**A.** The survival was “improved”.

**Q.** And the tumor volume (HuT78 tumor cells; FIG. 5A)?
**A.** The tumor volume was “reduced”.

**Q.** What about the survival (HuT78 tumor cells; FIG. 5B) of the same molecule?
**A.** Its survival is “improved”.
